# Experimental data taken from the supplement of paper PMC10567573.
# B1: SAT2 (parent)
# chain: GYGIYYFIYSTWKGRTIYLEDIYV
# B2: TRIM55 (parent)
# chain: YKSFSKEQQTMDNLEKQLICPICL
# Variants of: B1
# Experiment: protein stability index of a GFP-peptide fusion (GPS, HEK-293T) (PSI 1-6); higher = more stable
# Settings: c terminus: a fixed tail appended
# 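Note: lentivirally expressed fusions sorted by FACS into six bins by GFP to DsRed ratio, PSI derived from sequencing read proportions per bin multiplied by bin number.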
row,Variant,protein stability index
1,GYGIYYFYYSTWKGRTIYLEDIYV [I8Y],3.28
2,GYGIYYFSYSTWKGRTIYLEDIYV [I8S],3.1
3,GYGIYYFLYSTWKGRTIYLEDIYV [I8L],2.2
4,GYGIYYFTYSTWKGRTIYLEDIYV [I8T],4.7
5,GYGIYYFQYSTWKGRTIYLEDIYV [I8Q],1.27
6,GYGIYYFIYSTNKGRTIYLEDIYV [W12N],3.5
7,GYGIYYFIYSTEKGRTIYLEDIYV [W12E],2.55
8,GYGIYYFIYSTKKGRTIYLEDIYV [W12K],2.65
9,GYGIYYFIYSTDKGRTIYLEDIYV [W12D],2.25
10,GYGIYYFIYSTWKGRRIYLEDIYV [T16R],1.69
11,GYGIYYFIYSTWKNRTIYLEDIYV [G14N],2.71
12,GYGIYYFIYSTWKTRTIYLEDIYV [G14T],2.34
13,GYGIYYFIYSTWKHRTIYLEDIYV [G14H],4.09
14,GYGIYYFIYSTWKLRTIYLEDIYV [G14L],2.47
15,GYGIYYFIYSTWKGRTIVLEDIYV [Y18V],3.04
16,GYGIYYFIYSTWKGRTISLEDIYV [Y18S],2.33
17,GYGIYYFIYSTWGGRTIYLEDIYV [K13G],2.94
18,GYGIYYRIYSTWKGRTIYLEDIYV [F7R],2.72
19,GYGIYYVIYSTWKGRTIYLEDIYV [F7V],3.39
20,GYKIYYFIYSTWKGRTIYLEDIYV [G3K],2.62
21,GYCIYYFIYSTWKGRTIYLEDIYV [G3C],2.12
22,SYGIYYFIYSTWKGRTIYLEDIYV [G1S],2.41
23,MYGIYYFIYSTWKGRTIYLEDIYV [G1M],3.54
24,RYGIYYFIYSTWKGRTIYLEDIYV [G1R],2.21
25,EYGIYYFIYSTWKGRTIYLEDIYV [G1E],2.96
26,GYGIYQFIYSTWKGRTIYLEDIYV [Y6Q],3.44
27,GYGIYLFIYSTWKGRTIYLEDIYV [Y6L],1.83
28,GYGIYFFIYSTWKGRTIYLEDIYV [Y6F],3.09

row,Variant,protein stability index
1,GYGIYAFIYSTWKGRTIYLEDIYV [Y6A],2.88
2,GYGIYCFIYSTWKGRTIYLEDIYV [Y6C],2.94
3,GYGIYYFIYSTWKGRTIYLEDIYS [V24S],2.83
4,GYGIYYFIYSTWKGRTIYLEDIYA [V24A],2.62
5,GYGIYYFIYSTWKGRTIYLEDIYY [V24Y],2.53
6,GYGIYYFIGSTWKGRTIYLEDIYV [Y9G],2.77
7,GYGIYYFINSTWKGRTIYLEDIYV [Y9N],2.2
8,GYGIYYFITSTWKGRTIYLEDIYV [Y9T],2.78
9,GYGIYYFIYSTWKGATIYLEDIYV [R15A],4.7
10,GYGIYYFIYSTWKGPTIYLEDIYV [R15P],2.17
11,GYGIYYFIYSTWKGTTIYLEDIYV [R15T],3.03
12,GYGIYYFIYSVWKGRTIYLEDIYV [T11V],3.88
13,GYGIYYFIYSSWKGRTIYLEDIYV [T11S],2.44
14,GYGIYYFIYSTWKGRTIYLEDIAV [Y23A],2.89
15,GYGIYYFIYQTWKGRTIYLEDIYV [S10Q],2.29
16,GWGIYYFIYSTWKGRTIYLEDIYV [Y2W],2.38
17,GPGIYYFIYSTWKGRTIYLEDIYV [Y2P],1.91
18,GYGIYYFIYSTWKGRTIYLEHIYV [D21H],2.67
19,GYGIYYFIYSTWKGRTIYLEMIYV [D21M],3.04
20,GYGIYYFIYSTWKGRTIYLEIIYV [D21I],3.08
21,GYGWYYFIYSTWKGRTIYLEDIYV [I4W],2.71
22,GYGDYYFIYSTWKGRTIYLEDIYV [I4D],2.92
23,GYGVYYFIYSTWKGRTIYLEDIYV [I4V],1.71
24,GYGIYYFIYSTWKGRTIYGEDIYV [L19G],3.7
25,GYGIYYFIYSTWKGRTVYLEDIYV [I17V],2.27
26,GYGIYYFIYSTWKGRTDYLEDIYV [I17D],3.35
27,GYGIYYFIYSTWKGRTIYLRDIYV [E20R],3.97

# Variants of: B2
# Experiment: as above
# Settings: c terminus: a fixed tail appended
row,Variant,protein stability index
1,YKSFSYEQQTMDNLEKQLICPICL [K6Y],1.98
2,YKSFSNEQQTMDNLEKQLICPICL [K6N],2.04
3,YKSFSMEQQTMDNLEKQLICPICL [K6M],1.57
4,YKSFSWEQQTMDNLEKQLICPICL [K6W],2.51
5,YKSFSCEQQTMDNLEKQLICPICL [K6C],2.41
6,YKSFSVEQQTMDNLEKQLICPICL [K6V],1.49
7,YKSFSPEQQTMDNLEKQLICPICL [K6P],2.05
8,YKSFSLEQQTMDNLEKQLICPICL [K6L],2.91
9,YKSFSTEQQTMDNLEKQLICPICL [K6T],2.09
10,YKSFSEEQQTMDNLEKQLICPICL [K6E],2.04
11,YKSFSGEQQTMDNLEKQLICPICL [K6G],2.15
12,YKSFSSEQQTMDNLEKQLICPICL [K6S],2.14
13,YKSFSIEQQTMDNLEKQLICPICL [K6I],1.85
14,YKSFSHEQQTMDNLEKQLICPICL [K6H],1.85
15,YKSFSQEQQTMDNLEKQLICPICL [K6Q],2.29
16,YKSFSFEQQTMDNLEKQLICPICL [K6F],1.3
17,YKSFSREQQTMDNLEKQLICPICL [K6R],2.63
18,YKSFSAEQQTMDNLEKQLICPICL [K6A],2.91
19,YKQFSKEQQTMDNLEKQLICPICL [S3Q],2.2
20,YKLFSKEQQTMDNLEKQLICPICL [S3L],1.69

row,Variant,protein stability index
1,YKTFSKEQQTMDNLEKQLICPICL [S3T],2.69
2,YKDFSKEQQTMDNLEKQLICPICL [S3D],2.47
3,YKCFSKEQQTMDNLEKQLICPICL [S3C],2
4,YKKFSKEQQTMDNLEKQLICPICL [S3K],2.44
5,YKEFSKEQQTMDNLEKQLICPICL [S3E],2.25
6,YKPFSKEQQTMDNLEKQLICPICL [S3P],2.05
7,YKNFSKEQQTMDNLEKQLICPICL [S3N],2.32
8,YKFFSKEQQTMDNLEKQLICPICL [S3F],1.65
9,YKAFSKEQQTMDNLEKQLICPICL [S3A],2.02
10,YKVFSKEQQTMDNLEKQLICPICL [S3V],2.07
11,YKMFSKEQQTMDNLEKQLICPICL [S3M],1.85
12,YKHFSKEQQTMDNLEKQLICPICL [S3H],2.45
13,YKGFSKEQQTMDNLEKQLICPICL [S3G],1.69
14,YKYFSKEQQTMDNLEKQLICPICL [S3Y],1.44
15,YKWFSKEQQTMDNLEKQLICPICL [S3W],2.18
16,YKIFSKEQQTMDNLEKQLICPICL [S3I],1.94
17,YKRFSKEQQTMDNLEKQLICPICL [S3R],2.43
18,YKSMSKEQQTMDNLEKQLICPICL [F4M],2
19,YKSLSKEQQTMDNLEKQLICPICL [F4L],2.27
